B1: wildtype FGF10 (38-208) (ligand)
chain: QALGQDMVSPEATNSSSSSFSSPSSAGRHVRSYNHLQGDVRWRKLFSFTKYFLKIEKNGKVSGTKKENCPYSILEITSVEIGVVAVKAINSNYYLAMNKKGKLYGSKEFNNDCKLKERIEENGYNTYASFNWQHNGRQMYVALNGKGAPRRGQKTRRKNTSAHFLPMVVHS
B2: FGF10-STAB2 (ligand)
chain: QALGQDMVSPEATNSSSSSFSSPSSAGRHVRSYNHLQGDVRIRKLFSFTGYFLKIEPNGKVSGTKKENCPYSILEITSVEIGVVAVKAINSGYYLAMNKKGKLYGSKEFNNDCKLKERIEENGYNTYASFNWRHNGRQMYVALNGKGAPVRGQKTRRKNTSAHFLPMVVHS
B3: FGF10-STAB3 (ligand)
chain: QALGQDMVSPEATNSSSSSFSSPSSAGRHVRSYNHLQGDVRIRKLFSFTGYFLKIEPNGKVSGTKKENCPYSILEITSVEIGVVAVKAINSGYYLAMNKKGKLYGSKEFNNDCKLKERIEENGYNTYASFNWRHNGRQMYVALNGKGAPERGQKTRRKNTSAHFLPMVVHS

Target: human extracellular domain of FGFR2b fused with the Fc domain of IgG1 (human)
Test: BLI; Octet K2; FGFR extracellular domain-Fc immobilised on a protein A biosensor; FGF10 variants in PBS, 31.25 to 250 nM (told for FGFR2b-Fc); association and dissociation 300 s each; KD from fitted saturation binding curves

Binder | Kd [nM]
B1 | 764
B2 | 996
B3 | 913

Reference: publication PMC12011707
